Test results taken from EP1876240B1.

Columns and labels:
[1] = molecular target: rat GPVI-human Fc (rGPVI-hFc) (rat; mouse); test: ELISA on immobilized antigen; control
[2] = molecular target: human GPVI extracellular region-human Fc fusion protein (hGPVI-hFc) (human); test: ELISA on immobilized antigen; control
Chain of human GPVI extracellular region-human Fc fusion protein (hGPVI-hFc) (human) (chain, as listed by the source limits assumed, form in doubt): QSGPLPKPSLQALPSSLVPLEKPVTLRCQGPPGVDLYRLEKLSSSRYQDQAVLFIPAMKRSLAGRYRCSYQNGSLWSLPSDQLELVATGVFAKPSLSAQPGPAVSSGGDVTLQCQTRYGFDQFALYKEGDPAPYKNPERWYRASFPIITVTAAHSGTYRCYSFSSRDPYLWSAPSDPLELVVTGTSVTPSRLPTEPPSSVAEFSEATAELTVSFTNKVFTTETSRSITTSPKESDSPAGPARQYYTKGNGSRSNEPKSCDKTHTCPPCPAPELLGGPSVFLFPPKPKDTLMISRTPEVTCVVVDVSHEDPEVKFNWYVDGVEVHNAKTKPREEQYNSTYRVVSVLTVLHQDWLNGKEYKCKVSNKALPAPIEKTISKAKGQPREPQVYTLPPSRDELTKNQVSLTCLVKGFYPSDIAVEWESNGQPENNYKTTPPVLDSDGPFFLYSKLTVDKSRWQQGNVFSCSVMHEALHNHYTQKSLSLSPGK

absorbance (ELISA) [1]: 0.123
absorbance (ELISA) [2]: 0.026
Substance: Normal Mouse IgG (antibody)
